Experimental data as given in the supplement of paper PMC10567573.

B1: RAD54B (parent)
chain: YVQEKRDGLKRRQQLEEELLRAKI

Variants of: B1
Assay: protein stability index of a GFP-peptide fusion (GPS, HEK-293T) (PSI 1-6); higher = more stable
Details: c terminus: a fixed tail appended
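Also: lentivirally expressed fusions sorted by FACS into six bins by GFP to DsRed ratio, PSI derived from sequencing read proportions per bin multiplied by bin number.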

Variant | protein stability index
YVQEKRDGLDRRQQLEEELLRAKI | 2.04
YVQLKRDGLKRRQQLEEELLRAKI | 1.67
YVQQKRDGLKRRQQLEEELLRAKI | 1.68
YVQWKRDGLKRRQQLEEELLRAKI | 1.62
YVQCKRDGLKRRQQLEEELLRAKI | 2.57
YVQHKRDGLKRRQQLEEELLRAKI | 1.6
YVQKKRDGLKRRQQLEEELLRAKI | 2.28
YVQRKRDGLKRRQQLEEELLRAKI | 2.31
YVQSKRDGLKRRQQLEEELLRAKI | 2.9
YVQNKRDGLKRRQQLEEELLRAKI | 1.89
YVQFKRDGLKRRQQLEEELLRAKI | 1.89
YVQGKRDGLKRRQQLEEELLRAKI | 2.13
YVQDKRDGLKRRQQLEEELLRAKI | 1.68
YVQYKRDGLKRRQQLEEELLRAKI | 2.28
YVQIKRDGLKRRQQLEEELLRAKI | 1.35
YVQTKRDGLKRRQQLEEELLRAKI | 1.49
YVQVKRDGLKRRQQLEEELLRAKI | 1.6
YVQMKRDGLKRRQQLEEELLRAKI | 1.84
YVQPKRDGLKRRQQLEEELLRAKI | 2.23
YVQEKRDFLKRRQQLEEELLRAKI | 2.27
YVQEKRDELKRRQQLEEELLRAKI | 2.59
YVQEKRDWLKRRQQLEEELLRAKI | 3.6
YVQEKRDYLKRRQQLEEELLRAKI | 2.12
YVQEKRDDLKRRQQLEEELLRAKI | 2.27

Variant | protein stability index
YVQEKRDILKRRQQLEEELLRAKI | 1.99
YVQEKRDPLKRRQQLEEELLRAKI | 2.12
YVQEKRDSLKRRQQLEEELLRAKI | 1.99
YVQEKRDHLKRRQQLEEELLRAKI | 1.92
YVQEKRDNLKRRQQLEEELLRAKI | 1.49
YVQEKRDKLKRRQQLEEELLRAKI | 2.33
YVQEKRDQLKRRQQLEEELLRAKI | 2.01
YVQEKRDTLKRRQQLEEELLRAKI | 1.74
YVQEKRDVLKRRQQLEEELLRAKI | 2.11
YVQEKRDLLKRRQQLEEELLRAKI | 2.45
YVQEKRDALKRRQQLEEELLRAKI | 1.82
YVQEKRDRLKRRQQLEEELLRAKI | 2.28
YVQEKRDCLKRRQQLEEELLRAKI | 1.98
YVQEKRDMLKRRQQLEEELLRAKI | 2.29
YVQEYRDGLKRRQQLEEELLRAKI | 2.4
YVQETRDGLKRRQQLEEELLRAKI | 1.74
YVQEWRDGLKRRQQLEEELLRAKI | 2.11
YVQEMRDGLKRRQQLEEELLRAKI | 2.25
YVQERRDGLKRRQQLEEELLRAKI | 1.86
YVQECRDGLKRRQQLEEELLRAKI | 2.16
YVQELRDGLKRRQQLEEELLRAKI | 1.96
YVQEQRDGLKRRQQLEEELLRAKI | 2.48
YVQENRDGLKRRQQLEEELLRAKI | 2.19
YVQEGRDGLKRRQQLEEELLRAKI | 1.91

Variant | protein stability index
YVQEHRDGLKRRQQLEEELLRAKI | 2.26
YVQEARDGLKRRQQLEEELLRAKI | 1.96
YVQEDRDGLKRRQQLEEELLRAKI | 3.46
YVQEERDGLKRRQQLEEELLRAKI | 3.57
YVQESRDGLKRRQQLEEELLRAKI | 2.56
YVQEFRDGLKRRQQLEEELLRAKI | 2.49
YVQEPRDGLKRRQQLEEELLRAKI | 2.05
YVQEVRDGLKRRQQLEEELLRAKI | 2.1
YVQEIRDGLKRRQQLEEELLRAKI | 2.77
YVQEKRDGLKGRQQLEEELLRAKI | 2
YVQEKRDGLKARQQLEEELLRAKI | 2.82
YVQEKRDGLKSRQQLEEELLRAKI | 2.36
YVQEKRDGLKWRQQLEEELLRAKI | 2.46
YVQEKRDGLKVRQQLEEELLRAKI | 2.13
YVQEKRDGLKDRQQLEEELLRAKI | 2.62
YVQEKRDGLKPRQQLEEELLRAKI | 2.25
YVQEKRDGLKHRQQLEEELLRAKI | 2.93
YVQEKRDGLKIRQQLEEELLRAKI | 2.86
YVQEKRDGLKYRQQLEEELLRAKI | 1.97
YVQEKRDGLKNRQQLEEELLRAKI | 2.67
YVQEKRDGLKERQQLEEELLRAKI | 3.22
YVQEKRDGLKKRQQLEEELLRAKI | 2.44
YVQEKRDGLKLRQQLEEELLRAKI | 2.23
YVQEKRDGLKTRQQLEEELLRAKI | 2.46

Variant | protein stability index
YVQEKRDGLKMRQQLEEELLRAKI | 2.07
YVQEKRDGLKFRQQLEEELLRAKI | 1.69
YVQEKRDGLKCRQQLEEELLRAKI | 1.81
YVQEKRDGLKQRQQLEEELLRAKI | 2.32
YVQEKRDGLKRRWQLEEELLRAKI | 1.98
YVQEKRDGLKRRDQLEEELLRAKI | 2.3
YVQEKRDGLKRRIQLEEELLRAKI | 2.49
YVQEKRDGLKRRKQLEEELLRAKI | 1.46
YVQEKRDGLKRRSQLEEELLRAKI | 1.69
YVQEKRDGLKRRTQLEEELLRAKI | 2.32
YVQEKRDGLKRRFQLEEELLRAKI | 1.62
YVQEKRDGLKRRNQLEEELLRAKI | 1.91
YVQEKRDGLKRRMQLEEELLRAKI | 2.07
YVQEKRDGLKRREQLEEELLRAKI | 2.41
YVQEKRDGLKRRPQLEEELLRAKI | 2.17
YVQEKRDGLKRRRQLEEELLRAKI | 1.71
YVQEKRDGLKRRLQLEEELLRAKI | 2.32
YVQEKRDGLKRRCQLEEELLRAKI | 1.84
YVQEKRDGLKRRGQLEEELLRAKI | 2.31
YVQEKRDGLKRRHQLEEELLRAKI | 2.06
YVQEKRDGLKRRAQLEEELLRAKI | 2.23
YVQEKRDGLKRRVQLEEELLRAKI | 2.4
